PMC12386367, “Importin α3 Is Tolerant to Nuclear Localization Signal Chirality” (International Journal of Molecular Sciences, 2025)
Read-outs that look alike come from different tables or passages of the source. Non-standard residues stand in square brackets, D forms with d.

Columns and labels:
[1] = target: L-NLS-NUPR1 NLS (Homo sapiens) (UniProt O60356); settings: cited from earlier work
[2] = target: L-NLS-PADI NLS (Homo sapiens) (UniProt Q9UM07); experiment: ITC; settings: cited from earlier work
[3] = target: L-NLS-NUPR1L NLS (Homo sapiens) (UniProt A6NF83); experiment: ITC; settings: cited from earlier work
Sequence of L-NLS-NUPR1L NLS (Homo sapiens) (A6NF83 60-80): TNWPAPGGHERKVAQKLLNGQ

[4] = target: L-NLS-PADI NLS (Homo sapiens) (UniProt Q9UM07); experiment: fluorescence; settings: cited from earlier work
[5] = target: L-NLS-NUPR1phospho NLS (Homo sapiens) (UniProt O60356); settings: cited from earlier work
[6] = target: L-NLS-NUPR1phospho NLS (Homo sapiens) (UniProt O60356); settings: cited from earlier work; remark: listed apart in the source
[7] = target: L-NLS-NUPR1L NLS (Homo sapiens) (UniProt A6NF83); experiment: fluorescence; settings: cited from earlier work
[8] = target: L-NLS-NUPR1 NLS (Homo sapiens) (UniProt O60356); settings: cited from earlier work; remark: listed apart in the source
[9] = target: L-NLS-NUPR1 (Homo sapiens) (UniProt O60356); experiment: ITC; settings: cited from earlier work
Sequence of L-NLS-NUPR1 (Homo sapiens) (O60356 54-74): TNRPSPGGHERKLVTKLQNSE

[10] = target: L-NLS-NUPR1L (Homo sapiens) (UniProt A6NF83); experiment: ITC; settings: cited from earlier work
Sequence of L-NLS-NUPR1L (Homo sapiens) (A6NF83 51-74): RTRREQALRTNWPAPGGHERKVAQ

[11] = target: L-NLS-PADI (NLS2-PADI4) (Homo sapiens) (UniProt Q9UM07); experiment: ITC; settings: cited from earlier work
Sequence of L-NLS-PADI (NLS2-PADI4) (Homo sapiens) (Q9UM07 498-526): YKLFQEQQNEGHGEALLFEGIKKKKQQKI

[12] = target: L-NLS-NUPR1phospho (Homo sapiens) (UniProt O60356); experiment: ITC; settings: cited from earlier work
[13] = target: L-NLS-PADI (NLS2-PADI4) (Homo sapiens) (UniProt Q9UM07); experiment: fluorescence; settings: cited from earlier work
[14] = target: L-NLS-NUPR1L (Homo sapiens) (UniProt A6NF83); experiment: fluorescence; settings: cited from earlier work
[15] = target: T1, IBB-depleted species of Impα3 (residues 64–521 of the intact protein) (human, UniProt O00629 64-521); experiment: BLI; His-tagged Impα3 or ∆Impα3 immobilised on His-tag biosensors at 0.25 μM; peptides 1 to 10 μM; BLItz system, manufacturer's 10x kinetics buffer; 25 °C; kon and koff from pseudo-first-order plots; apparent Kd = koff/kon, two-state process assumed; settings: both partners purified
T1 construct: PDB 5XZX was used only as the model of ∆Impα3 for docking; its limits may differ from 64-521; also called ΔImpα3; truncated importin species
T1 sequence (looked up): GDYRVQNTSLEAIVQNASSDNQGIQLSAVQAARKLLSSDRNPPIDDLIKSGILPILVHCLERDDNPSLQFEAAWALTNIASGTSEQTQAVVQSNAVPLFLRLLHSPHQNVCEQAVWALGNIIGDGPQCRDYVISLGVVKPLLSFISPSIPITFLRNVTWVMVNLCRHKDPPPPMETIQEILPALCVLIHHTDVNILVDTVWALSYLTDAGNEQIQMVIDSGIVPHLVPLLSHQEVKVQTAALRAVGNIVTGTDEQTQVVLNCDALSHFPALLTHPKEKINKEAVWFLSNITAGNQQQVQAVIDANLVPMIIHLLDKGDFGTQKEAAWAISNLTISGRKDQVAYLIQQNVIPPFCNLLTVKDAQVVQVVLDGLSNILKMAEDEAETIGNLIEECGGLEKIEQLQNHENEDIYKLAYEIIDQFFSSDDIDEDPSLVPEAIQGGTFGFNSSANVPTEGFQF

[16] = target: T2, Human importin α3 isoform (residues 1–521) (human, UniProt O00629 1-521); experiment: as above; settings: both partners purified
T2 construct: human importin α3 (Impα3, KPNA4), residues 1-521, intact protein with the N-terminal IBB domain; The materials list Ni2+-resin, ampicillin and IPTG, so expression in E. coli is surmised; also called Impα3; KPNA4
T2 sequence (looked up): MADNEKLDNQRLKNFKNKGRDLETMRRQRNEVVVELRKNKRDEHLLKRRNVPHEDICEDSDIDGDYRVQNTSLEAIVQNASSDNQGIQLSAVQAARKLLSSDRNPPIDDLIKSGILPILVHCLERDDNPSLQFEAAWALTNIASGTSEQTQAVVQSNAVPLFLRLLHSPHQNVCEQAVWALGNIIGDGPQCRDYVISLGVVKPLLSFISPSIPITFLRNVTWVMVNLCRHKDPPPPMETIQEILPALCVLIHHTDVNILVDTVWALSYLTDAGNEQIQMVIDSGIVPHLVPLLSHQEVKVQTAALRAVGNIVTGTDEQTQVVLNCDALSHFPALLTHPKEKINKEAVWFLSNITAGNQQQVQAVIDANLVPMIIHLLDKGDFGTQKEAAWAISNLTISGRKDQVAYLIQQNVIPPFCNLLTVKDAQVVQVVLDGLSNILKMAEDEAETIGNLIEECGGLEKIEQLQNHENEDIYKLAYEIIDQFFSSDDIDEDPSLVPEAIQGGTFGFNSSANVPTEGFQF

[17] = target: T2, Human importin α3 isoform (residues …); experiment: ITC; importin species (15 µM in protomer units) in the cell, D-NLS peptide (150–200 µM) in the syringe; Tris buffer 50 mM, pH 8.0; 25 °C; single set of binding sites; settings: both partners purified
[18] = target: T1, IBB-depleted species of Impα3 (residues …); experiment: as above; settings: both partners purified
[19] = target: T2, Human importin α3 isoform (residues …); experiment: as above; settings: both partners purified; remark: listed apart in the source
[20] = target: T1, IBB-depleted species of Impα3 (residues …); experiment: as above; settings: both partners purified; remark: listed apart in the source
[21] = target: T1, IBB-depleted species of Impα3 (residues …); experiment: other fluorescence titration; intrinsic fluorescence, excitation at 280 or 295 nm; Impα3 or ∆Impα3 fixed at 3 μM (protomer units), peptide 0–35 μM; 50 mM Tris pH 8.0; 25 °C; settings: both partners purified
[22] = target: T2, Human importin α3 isoform (residues …); experiment: as above; settings: both partners purified

**Q.** With “∆Importin α3 IBB-deleted (from UniProt O00629)” as the molecule, how does the Kd [1] read?
**A.** 0.95 µM

**Q.** And the Kd [2]?
**A.** 4.37 µM

**Q.** What about the Kd [3] of the same molecule?
**A.** 5.5 µM

**Q.** And the Kd [4]?
**A.** 4 µM

**Q.** And the Kd [5]?
**A.** 29 µM

**Q.** Which results are given for Importin α3 (from UniProt O00629)?
**A.** Kd [2]: 23 µM; Kd [6]: 27 µM; Kd [4]: 4 µM; Kd [7]: 3 µM; Kd [8]: 1.7 µM

**Q.** With ∆Impα3 64-521 (from UniProt O00629) as the molecule, how does the Kd [9] read?
**A.** 0.95 µM

**Q.** And the Kd [10]?
**A.** 5.5 µM

**Q.** And the Kd [11]?
**A.** 4.37 µM

**Q.** What about the Kd [12] of the same molecule?
**A.** 29 µM

**Q.** And the Kd [13]?
**A.** 4 µM

**Q.** With “importin α3 (Impα3) 1-521 (from UniProt O00629)” as the molecule, how does the Kd [9] read?
**A.** 1.7 µM

**Q.** And the Kd [11]?
**A.** 23 µM

**Q.** What about the Kd [12] of the same molecule?
**A.** 27 µM

**Q.** What about the Kd [14] of the same molecule?
**A.** 3 µM

**Q.** What about the Kd [13] of the same molecule?
**A.** 4 µM

B1: D-enantiomeric, isolated NLS region of NUPR1L (residues 51–74 of the intact protein) (peptide)
peptide: Ac-[dR][dT][dR][dR][dE][dQ][dA][dL][dR][dT][dN][dW][dP][dA][dP]GG[dH][dE][dR][dK][dV][dA][dQ]-NH2
SMILES: CC(=O)N[C@H](CCCNC(=N)N)C(=O)N[C@@H](C(=O)N[C@H](CCCNC(=N)N)C(=O)N[C@H](CCCNC(=N)N)C(=O)N[C@H](CCC(=O)O)C(=O)N[C@H](CCC(N)=O)C(=O)N[C@H](C)C(=O)N[C@H](CC(C)C)C(=O)N[C@H](CCCNC(=N)N)C(=O)N[C@@H](C(=O)N[C@H](CC(N)=O)C(=O)N[C@H](Cc1c[nH]c2ccccc12)C(=O)N1CCC[C@@H]1C(=O)N[C@H](C)C(=O)N1CCC[C@@H]1C(=O)NCC(=O)NCC(=O)N[C@H](Cc1c[nH]cn1)C(=O)N[C@H](CCC(=O)O)C(=O)N[C@H](CCCNC(=N)N)C(=O)N[C@H](CCCCN)C(=O)N[C@@H](C(=O)N[C@H](C)C(=O)N[C@H](CCC(N)=O)C(N)=O)C(C)C)[C@H](C)O)[C@H](C)O
notes: NLS region of NUPR1L (paralogue of NUPR1), residues 51-74 of the intact protein, made of D-amino acids; also called D-NLS-NUPR1L; source: synthetic peptide (Genscript, purity higher than 95%)
**Q.** With B1 as the molecule, how does the Kd [15] read?
**A.** 0.7 µM

**Q.** And the koff [15]?
**A.** 0.038 s⁻¹

**Q.** And the kon [15]?
**A.** 51200 M⁻¹ s⁻¹

**Q.** What about the Kd [16] of the same molecule?
**A.** 1 µM

**Q.** What about the koff [16] of the same molecule?
**A.** 0.069 s⁻¹

**Q.** What about the kon [16] of the same molecule?
**A.** 68000 M⁻¹ s⁻¹

**Q.** And the dH [17]?
**A.** -2.5 ± 0.2 kcal/mol

**Q.** What about the dH [18] of the same molecule?
**A.** -4.5 ± 0.7 kcal/mol

**Q.** What about the Kd [19] of the same molecule?
**A.** 2.7 ± 0.6 µM

**Q.** And the Kd [20]?
**A.** 5 ± 1 µM

B2: D-enantiomeric, isolated, non-canonical NLS of PADI4 (peptide)
peptide: Ac-[dK][dL][dF][dQ][dE][dQ][dQ][dN][dE]G[dH]G[dE][dA][dL][dL][dF][dE]G[dI][dK][dK][dK][dK][dQ][dQ][dK][dI]-NH2
SMILES: CC[C@@H](C)[C@@H](NC(=O)[C@@H](CCCCN)NC(=O)[C@@H](CCC(N)=O)NC(=O)[C@@H](CCC(N)=O)NC(=O)[C@@H](CCCCN)NC(=O)[C@@H](CCCCN)NC(=O)[C@@H](CCCCN)NC(=O)[C@@H](CCCCN)NC(=O)[C@H](NC(=O)CNC(=O)[C@@H](CCC(=O)O)NC(=O)[C@@H](Cc1ccccc1)NC(=O)[C@@H](CC(C)C)NC(=O)[C@@H](CC(C)C)NC(=O)[C@@H](C)NC(=O)[C@@H](CCC(=O)O)NC(=O)CNC(=O)[C@@H](Cc1c[nH]cn1)NC(=O)CNC(=O)[C@@H](CCC(=O)O)NC(=O)[C@@H](CC(N)=O)NC(=O)[C@@H](CCC(N)=O)NC(=O)[C@@H](CCC(N)=O)NC(=O)[C@@H](CCC(=O)O)NC(=O)[C@@H](CCC(N)=O)NC(=O)[C@@H](Cc1ccccc1)NC(=O)[C@@H](CC(C)C)NC(=O)[C@@H](CCCCN)NC(C)=O)[C@H](C)CC)C(N)=O
notes: second predicted (non-canonical) NLS region of PADI4 (protein arginine deiminase 4), residues 499-526 of the intact protein, made of D-amino acids; Mirror-image (all-D) peptide; also called D-NLS-PADI; D-form of NLS2-PADI4; source: synthetic peptide (Genscript, purity higher than 95%)
**Q.** For B2, which Kd [15] is on record?
**A.** 6 µM

**Q.** What about the koff [15] of the same molecule?
**A.** 0.37 s⁻¹

**Q.** And the kon [15]?
**A.** 60000 M⁻¹ s⁻¹

**Q.** And the Kd [16]?
**A.** 15 µM

**Q.** What about the koff [16] of the same molecule?
**A.** 0.6 s⁻¹

**Q.** What about the kon [16] of the same molecule?
**A.** 45000 M⁻¹ s⁻¹

**Q.** What about the Kd [21] of the same molecule?
**A.** 16 ± 11 µM

**Q.** What about the Kd [22] of the same molecule?
**A.** 12 ± 5 µM
